Assay results as given in US20230272110A1 (LAVA THERAPEUTICS N V, published 2023).

B1: LV1050-5C8var1 (bispecific antibody)
chain: EVQLVESGGGLVQPGGSLRLSCAASRFMISEYSMHWVRQAPGKGLEWVSTINPAGTTDYADSVKGRFTISRDNAKNTLYLQMNSLRAEDTAVYYCDGYGYRGQGTQVTVSSGGGGSEVQLLESGGGSVQPGGSLRLSCAASGRPFSNYAMSWFRQAPGKEREFVSAISWSGGSTSYADSVKGRFTISRDNSKNTLYLQMNSLRAEDTAVYYCAAQFSGADYGFGRLGIRGYEYDYWGQGTQVTVSSAAAEPEA
B2: LV1050-Fc x 5C8var1-Fc (bispecific antibody, V domains shown)
V domain 1: EVQLVESGGGLVQPGGSLRLSCAASRFMISEYSMHWVRQAPGKGLEWVSTINPAGTTDYADSVKGRFTISRDNAKNTLYLQMNSLRAEDTAVYYCDGYGYRGQGTQVTVSS
V domain 2: EVQLLESGGGSVQPGGSLRLSCAASGRPFSNYAMSWFRQAPGKEREFVSAISWSGGSTSYADSVKGRFTISRDNSKNTLYLQMNSLRAEDTAVYYCAAQFSGADYGFGRLGIRGYEYDYWGQGTQVTVSS
notes: Knob-into-hole heterodimer of two VHH-Fc chains; also called 5C8var1-Fc x LV1050-Fc; lead bispecific antibody
B3: LV1044-5C8 (bispecific antibody)
chain: EVQLVESGGGLVQPGGSLTLSCAASRFMISEYSMHWVRQAPGKGLEWVSTINPAGTTDYAESVKGRFTISRDNAKNTLYLQMNSLKPEDTAVYYCDGYGYRGQGTQVTVSSGGGGSEVQLVESGGGLVQAGGSLRLSCAASGRPFSNYAMGWFRQAPGKEREFVAAISWSGGSTSYADSVKGRFTISRDNAKNTVYLQMNSPKPEDTAIYYCAAQFSGADYGFGRLGIRGYEYDYWGQGTQVTVSS

Experiments:
[1] = biological target: T1, human PSMA on PSMA-positive prostate cancer cells (LNCaP, 22Rv1, VCaP, patient-derived tumor cells) (human, UniProt Q04609 1-750); experiment: cell-based or functional assay
[2] = biological target: T1, human PSMA on PSMA-positive prostate …; experiment: cell-based or functional assay; remark: listed apart in the source
[3] = biological target: T1, human PSMA on PSMA-positive prostate …; experiment: FACS on PSMA-positive LNCaP cells, detection with polyclonal anti-human IgG
Procedure: To test the binding of the molecule to PSMA, a concentration range of antibody was tested for binding to the PSMA positive prostate cancer cell line LNCaP and to the antigen negative cell line PC-3. Detection was performed with a polyclonal anti-human IgG antibody.

[4] = biological target: recombinant human PSMA, biotinylated (hPSMA) (human, UniProt Q04609 44-750, biotinylated (site not stated)); experiment: BLI, biotinylated hPSMA on streptavidin biosensors, antibody as analyte 3.125-200 nM; mean of n = 3, SD 1.24E-09
[5] = biological target: T1, human PSMA on PSMA-positive prostate …; experiment: cell-based or functional assay; remark: listed apart in the source

T1 sequence (Q04609 whole entry): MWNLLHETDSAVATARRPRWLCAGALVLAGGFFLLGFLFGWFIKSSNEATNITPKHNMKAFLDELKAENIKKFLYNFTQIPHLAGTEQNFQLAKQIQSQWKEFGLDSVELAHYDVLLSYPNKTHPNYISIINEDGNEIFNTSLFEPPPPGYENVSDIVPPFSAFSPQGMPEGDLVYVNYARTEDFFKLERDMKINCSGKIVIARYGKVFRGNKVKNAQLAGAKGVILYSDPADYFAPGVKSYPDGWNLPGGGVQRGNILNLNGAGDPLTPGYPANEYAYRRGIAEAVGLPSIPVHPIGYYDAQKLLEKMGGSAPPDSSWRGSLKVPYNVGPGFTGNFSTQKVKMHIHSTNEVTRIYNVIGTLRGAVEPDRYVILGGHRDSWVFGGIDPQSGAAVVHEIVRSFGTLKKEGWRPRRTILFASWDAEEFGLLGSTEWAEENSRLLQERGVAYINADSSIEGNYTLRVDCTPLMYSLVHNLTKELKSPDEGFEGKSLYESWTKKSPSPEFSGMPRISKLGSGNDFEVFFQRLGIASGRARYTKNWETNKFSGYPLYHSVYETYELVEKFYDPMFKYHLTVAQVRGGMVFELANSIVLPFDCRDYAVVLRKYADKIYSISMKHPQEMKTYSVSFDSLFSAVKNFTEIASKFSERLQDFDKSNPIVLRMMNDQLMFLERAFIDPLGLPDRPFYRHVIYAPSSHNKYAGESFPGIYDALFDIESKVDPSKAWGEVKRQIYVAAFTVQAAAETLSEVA
recombinant human PSMA, biotinylated (hPSMA), sequence (Q04609 44-750 limits assumed): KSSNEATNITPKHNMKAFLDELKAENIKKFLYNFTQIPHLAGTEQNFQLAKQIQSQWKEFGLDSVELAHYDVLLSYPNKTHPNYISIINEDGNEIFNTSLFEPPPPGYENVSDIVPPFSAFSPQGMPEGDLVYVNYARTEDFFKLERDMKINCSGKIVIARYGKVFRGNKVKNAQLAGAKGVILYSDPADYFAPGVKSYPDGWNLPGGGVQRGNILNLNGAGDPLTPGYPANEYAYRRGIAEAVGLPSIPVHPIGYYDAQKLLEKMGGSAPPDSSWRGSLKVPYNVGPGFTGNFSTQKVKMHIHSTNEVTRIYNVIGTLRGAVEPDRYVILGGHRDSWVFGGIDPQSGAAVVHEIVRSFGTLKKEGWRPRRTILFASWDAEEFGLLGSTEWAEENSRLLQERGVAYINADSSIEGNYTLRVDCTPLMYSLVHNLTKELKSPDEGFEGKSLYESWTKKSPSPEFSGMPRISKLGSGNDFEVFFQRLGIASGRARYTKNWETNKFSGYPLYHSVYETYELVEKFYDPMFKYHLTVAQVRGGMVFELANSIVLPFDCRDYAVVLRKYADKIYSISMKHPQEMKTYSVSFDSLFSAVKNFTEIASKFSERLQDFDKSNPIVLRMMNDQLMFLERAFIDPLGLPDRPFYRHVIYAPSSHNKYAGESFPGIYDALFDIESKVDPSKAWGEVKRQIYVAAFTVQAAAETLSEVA

Binder	EC50, Vγ9Vδ2 T cell mediated cytotoxicity of LNCaP cells, 24 h, E:T 1:1 [1] [nM]	EC50 for cytotoxicity, LNCaP target cells, 24 h, 7AAD in FACS, E:T 1:1 [1] [nM]	Mean EC50, cytotoxicity after 24 hours (CytoTox-Glo), 22Rv1, E:T 1:1 [2] [nM]	Mean EC50, cytotoxicity after 24 hours (CytoTox-Glo), LNCaP, E:T 1:1 [2] [nM]	Mean EC50, cytotoxicity after 24 hours (CytoTox-Glo), VCaP, E:T 1:1 [2] [nM]	Mean EC50, degranulation (CD107a) after 4 hours, 22Rv1, E:T 1:1 [2] [nM]	Mean EC50, degranulation (CD107a) after 4 hours, LNCaP, E:T 1:1 [2] [nM]	Mean EC50, degranulation (CD107a) after 4 hours, VCaP, E:T 1:1 [2] [nM]	EC50 [3] [nM]	Kd [4] [nM]	Mean EC50, Vγ9Vδ2-T cell cytotoxicity of LNCaP cells, 24 h, E:T 1:1 [5] [nM]	Mean EC50, Vγ9Vδ2-T cell cytotoxicity of LNCaP cells, 24 h, E:T 1:10 [5] [nM]
B1	0.0022	0.0019	–	–	–	–	–	–	–	–	–	–
B2	0.0105	0.0094	0.013	0.017	0.015	0.029	0.016	0.028	7.3	31.6	0.017	0.0099
B3	0.0016	0.0019	–	–	–	–	–	–	–	–	–	–
